Reference: US20160369011A1 (EISAI R AND D MANAGEMENT, published 2016)

Assays:
human MSLN (mesothelin) [1] = target: T1, human MSLN (mesothelin) (human, UniProt Q13421 296-598); test: ELISA on human MSLN, B cell culture supernatant, 2nd screening
T1 construct: The construct coated on the plates is not described; also called human mesothelin

human CD73 [2] = target: T2, human CD73 (human, UniProt P21589 27-547, limits assumed); test: ELISA on control antigen human CD73, B cell culture supernatant, 2nd screening
T2 construct: also called control antigen
T2 sequence (looked up): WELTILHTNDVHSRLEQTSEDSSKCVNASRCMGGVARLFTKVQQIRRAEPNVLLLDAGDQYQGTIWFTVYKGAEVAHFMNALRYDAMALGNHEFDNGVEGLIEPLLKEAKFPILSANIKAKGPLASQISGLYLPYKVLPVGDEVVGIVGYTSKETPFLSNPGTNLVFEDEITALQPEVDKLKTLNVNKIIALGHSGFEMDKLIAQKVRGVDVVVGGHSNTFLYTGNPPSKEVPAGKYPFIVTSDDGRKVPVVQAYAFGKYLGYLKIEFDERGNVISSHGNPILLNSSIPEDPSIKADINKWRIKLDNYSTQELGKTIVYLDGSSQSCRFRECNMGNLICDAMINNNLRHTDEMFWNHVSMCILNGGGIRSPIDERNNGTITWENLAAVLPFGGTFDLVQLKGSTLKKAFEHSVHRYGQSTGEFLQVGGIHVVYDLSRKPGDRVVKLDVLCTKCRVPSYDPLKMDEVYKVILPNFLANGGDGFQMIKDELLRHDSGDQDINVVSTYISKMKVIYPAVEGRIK

human MSLN (mesothelin) [3] = target: T1, human MSLN (mesothelin); test: ELISA on human MSLN, B cell culture supernatant, 1st screening
human CD73 [4] = target: T2, human CD73; test: ELISA, B cell culture supernatant, 2nd screening
[5] = target: T3, human endosialin/TEM1 extracellular domain fused to mouse IgG2b Fc (human); test: SPR, ligand TEM1-Fc, flow cell Fc4
T3 construct: also called TEM1-Fc
T3 chain: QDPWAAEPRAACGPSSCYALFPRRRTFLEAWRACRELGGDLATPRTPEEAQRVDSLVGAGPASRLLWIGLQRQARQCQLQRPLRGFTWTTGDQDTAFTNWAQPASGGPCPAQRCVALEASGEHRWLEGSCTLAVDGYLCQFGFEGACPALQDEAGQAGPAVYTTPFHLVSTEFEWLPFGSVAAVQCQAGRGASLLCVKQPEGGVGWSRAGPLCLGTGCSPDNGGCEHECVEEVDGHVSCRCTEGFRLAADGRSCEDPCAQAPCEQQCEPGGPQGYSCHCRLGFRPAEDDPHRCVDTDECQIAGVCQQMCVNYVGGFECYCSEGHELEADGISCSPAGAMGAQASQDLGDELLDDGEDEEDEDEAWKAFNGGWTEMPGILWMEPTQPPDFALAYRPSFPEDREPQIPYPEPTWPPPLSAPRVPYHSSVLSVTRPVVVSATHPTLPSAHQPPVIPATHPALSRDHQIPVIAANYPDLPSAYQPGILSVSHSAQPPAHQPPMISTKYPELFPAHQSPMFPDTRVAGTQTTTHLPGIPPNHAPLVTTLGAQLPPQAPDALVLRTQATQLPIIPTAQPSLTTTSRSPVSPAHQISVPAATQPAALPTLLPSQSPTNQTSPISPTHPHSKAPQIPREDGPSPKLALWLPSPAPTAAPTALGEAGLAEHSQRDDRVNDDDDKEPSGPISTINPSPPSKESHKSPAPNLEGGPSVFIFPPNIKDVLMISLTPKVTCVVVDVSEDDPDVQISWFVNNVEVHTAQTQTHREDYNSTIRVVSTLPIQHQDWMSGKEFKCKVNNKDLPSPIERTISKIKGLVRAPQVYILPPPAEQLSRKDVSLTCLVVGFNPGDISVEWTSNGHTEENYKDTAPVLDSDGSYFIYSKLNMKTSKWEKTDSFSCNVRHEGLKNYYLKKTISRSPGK

[6] = target: T4, human CA9 (carbonic anhydrase IX) (human, UniProt Q16790 38-414); test: SPR, ligand CA9, flow cell Fc4
[7] = target: T4, human CA9 (carbonic anhydrase IX); test: SPR, ligand CA9, flow cell Fc3
[8] = target: T3, human endosialin/TEM1 extracellular …; test: SPR, ligand TEM1-Fc, flow cell Fc3

T1 sequence (Q13421 other isoform, or with tags, fused parts or gaps limits assumed, form in doubt): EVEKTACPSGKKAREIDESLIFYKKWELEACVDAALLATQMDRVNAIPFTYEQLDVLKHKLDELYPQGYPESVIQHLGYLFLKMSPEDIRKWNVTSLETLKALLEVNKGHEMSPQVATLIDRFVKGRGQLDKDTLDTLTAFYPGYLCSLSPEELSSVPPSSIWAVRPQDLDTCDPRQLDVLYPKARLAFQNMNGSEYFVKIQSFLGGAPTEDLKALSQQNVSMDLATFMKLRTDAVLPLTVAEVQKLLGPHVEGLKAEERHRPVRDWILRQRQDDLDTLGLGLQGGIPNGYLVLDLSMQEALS

Row | Binder | Optical Density (Anti-MSLN reactivity, 2nd screening) (human MSLN (mesothelin) [1]) [OD] | Optical Density (Anti-CD73 reactivity, 2nd screening) (human CD73 [2]) [OD] | Optical Density (Anti-MSLN reactivity, 1st screening) (human MSLN (mesothelin) [3]) [OD] | binding result (human CD73 [4]) | other results
1 | 383I18 (rabbit anti-MSLN mAb) (antibody, V domains shown) VH: QSVEESGGRLVTPGTPLTLTCTVSGFSLSSYAMGWVRQAPGEGLEWIGTISTGGITYYASWAKGRFTISKTSTTVDLKITSPTTEDTATYFCARVGSSGYLFYFFNLWGQGTLVTVSS VL: VFELTQTPSPVSAAVGGTVTIRCQASQNIKSYLAWYQQKPGQPPKLLIYEASILASGVSSRFKGSGSGTEFTLTISDLECADAATYYCQSYYAASSNAFGGGTEVVVK | 0.296 | 0.0744 | 0.249 | no binding | –
2 | 33O11 (rabbit anti-MSLN mAb) (antibody, V domains shown) VH: QSVEESGGRLVTPGTPLTLTCTVSGISLSSDAISWVRQAPGKGLEYIGIINGGGNTYYASWAKGRFTISKTSTTVDLKITSPTTEDTATYFCARGIQHGGGNSDYYYYGMDLWGPGTLVTVSS VL: EVLMTQTPSSVSAAVGDTVTIKCQASQSISSVLSWYQQKPGQPPKLLIYLASTLASGVPSRFSGSRSGTEFTLTISDLECDDAATYYCQTNYGTSSSNYGFAFGGGTEVVVK | 0.504 | 0.0818 | 0.282 | no binding | –
3 | 237N18 (rabbit anti-MSLN mAb) (antibody, V domains shown) VH: QSLEESGGRLVAPGTPLTLTCTVSGFSLSSYHMSWVRQAPGEGLEWIGGITAMSRTYYASWAKGRFTISKTSTTVHLKITSPTTEDTATYFCAREPGFVSNIWGPGTLVTVSL VL: AVVLTQTASPVSGVVGGTVTIKCQASQNIYSNLAWYQQKPGQRPKLLMYDASTLASGVPSRFKGSGSGTQFTLTISDLECADAATYYCQSISSVDNNVFGGGTEVVVK | 0.668 | 0.0918 | 0.362 | no binding | –
4 | 178F16 (rabbit anti-MSLN mAb) (antibody, V domains shown) VH: QSLEESGGRLVTPGTPLTLTCTASGFSLSNYAMTWVRQAPGKGLEYIGIISTGGITYYMDSAKGRFTISRTSTTVDLKMTSLTTEDTATYFCGRNAGGSYIFYYFDLWGQGTLVTVSS VL: AFELTQTPSSVEAAVGGTVTIKCQASQSIYSYLAWYQQKPGQPPKLLIYSASTLASGVSSRFRGSGSGTEYILTISDLECADAATYYCQTYYDIVTSTFGGGTEVVVK | 1.88 | 0.141 | 0.966 | no binding | –
5 | 324O5 (rabbit anti-MSLN mAb) (antibody, V domains shown) VH: QSLEESGGRLVTPGTPLTLTCTASGFSLSNYAMTWVRQAPGKGLEYIGIISTGGITYYMDSAKGRFTISRTSTTVDLKMTSLTTEDTATYFCGRNAGGSYIFYYFDLWGQGTLVTVSS VL: AFELTQTPSSVEAAVGGTVTIKCQASQSIYSYLAWYQQKPGQPPKLLIYSASTLASGVSSRFRGSGSGTEYTLTISDLECADAATYYCQTYYDIVTSTFGGGTEVVVK | 2.22 | 0.0801 | 1.4 | no binding | –
6 | xi155D5/xi1-55-2 bivalent/bispecific antigen-binding molecule (bispecific antibody, maleimido-PEG4-azide on Cys80, joined by copper-free click chemistry to the DBCO on Cys80 of the xi155D5 light chain; maleimido-PEG4-dibenzylcyclooctyne (DBCO) on Cys80, joined by copper-free click chemistry to the azide on Cys80 of the xi1-55-2 light chain, Two papain Fabs linked chemically through their light chain Cys80 residues; mass 95,939 Da by mass spectrometry; also called biFab; bivalent/bispecific Fab-Fab; not shown: human IgG1 CH1 and hinge up to the papain cleavage site) heavy 1: QSVKESGGRLVTPGTPLTLTCTVSGFSLNSYAMIWVRQAPGEGLEYIGFITTGGTTYYASWAKGRFTISRTSTTVDLKLTRPTTEDTATYFCARDRVKSYDDYGDLDAFEPWGPGTLVTISS light 1: ELVMTQTPSSVSAAVGGTVTINCQASQSISSYLAWYQQKPGQPPKLLIYYASTLASGVPSRFKGSGSGTEFTLTITGVQCDDAATYYCLGVYGYSFDDGIAFGGGTELEIKRTVAAPSVFIFPPSDEQLKSGTASVVCLLNNFYPREAKVQWKVDNALQSGNSQESVTEQDSKDSTYSLSSTLTLSKADYEKHKVYACEVTHQGLSSPVTKSFNRGEC heavy 2: QSVEESGGDLVKPEGSLTLTCTASGFSFSSSYWGCWVRQAPGKGPEWIACIYGGSSGTTYYPNWAKGRFSISKTSSTTVTLQMASLTAADTATYFCARVTNGGDWDFKLWGPGTLVTISS light 2: ELVMTQTPASVEVAVGGTVTIKCQASQSINTYLAWYQQKPGQPPKLLIYRASTLASGVPSRFKGSGSGTEFTLTISDLECADAATYYCQQSVRVIDVDNTFGGGTEVVVKRTVAAPSVFIFPPSDEQLKSGTASVVCLLNNFYPREAKVQWKVDNALQSGNSQESVTEQDSKDSTYSLSSTLTLSKADYEKHKVYACEVTHQGLSSPVTKSFNRGEC | – | – | – | – | Kd [5]: 0.185 nM; koff [5]: 0.000189 s⁻¹; kon [5]: 1.02e+06 M⁻¹ s⁻¹; Kd [6]: 0.15 nM; koff [6]: 4.4e-05 s⁻¹; kon [6]: 294000 M⁻¹ s⁻¹; Kd [7]: 0.121 nM; koff [7]: 3.91e-05 s⁻¹; kon [7]: 322000 M⁻¹ s⁻¹; Kd [8]: 0.31 nM; koff [8]: 0.000257 s⁻¹; kon [8]: 829000 M⁻¹ s⁻¹
7 | xi1-55-2 Fab (Fab, V domains shown, Made from xi1-55-2 by limited papain digestion and protein A removal of Fc; Fabs were fully decapped; not shown: human IgG1 CH1 and hinge up to the papain cleavage site) VH: QSVEESGGDLVKPEGSLTLTCTASGFSFSSSYWGCWVRQAPGKGPEWIACIYGGSSGTTYYPNWAKGRFSISKTSSTTVTLQMASLTAADTATYFCARVTNGGDWDFKLWGPGTLVTISS VL: ELVMTQTPASVEVAVGGTVTIKCQASQSINTYLAWYQQKPGQPPKLLIYRASTLASGVPSRFKGSGSGTEFTLTISDLECADAATYYCQQSVRVIDVDNTFGGGTEVVVKR | – | – | – | – | Kd [5]: 0.376 nM; koff [5]: 0.000326 s⁻¹; kon [5]: 865000 M⁻¹ s⁻¹; Kd [8]: 0.382 nM; koff [8]: 0.000329 s⁻¹; kon [8]: 862000 M⁻¹ s⁻¹
